The values below come from US20140199315A1 (Biogen, published 2014).

For assay [1], the target named is human Sp35 protein expressed on transfected cells (human) (UniProt Q96FE5). Briefly: FACS on live human LINGO-1 (Sp35) transfected 293 cells, PE-labelled secondary antibody alone (no primary antibody), FL2-H.
The target in assay [2] is T1, mouse Sp35 protein (form in the assay not stated) (mouse, UniProt Q9D1T0 36-532, limits assumed).
T1 construct: also called mSp35; murine Sp35
T1 sequence (looked up): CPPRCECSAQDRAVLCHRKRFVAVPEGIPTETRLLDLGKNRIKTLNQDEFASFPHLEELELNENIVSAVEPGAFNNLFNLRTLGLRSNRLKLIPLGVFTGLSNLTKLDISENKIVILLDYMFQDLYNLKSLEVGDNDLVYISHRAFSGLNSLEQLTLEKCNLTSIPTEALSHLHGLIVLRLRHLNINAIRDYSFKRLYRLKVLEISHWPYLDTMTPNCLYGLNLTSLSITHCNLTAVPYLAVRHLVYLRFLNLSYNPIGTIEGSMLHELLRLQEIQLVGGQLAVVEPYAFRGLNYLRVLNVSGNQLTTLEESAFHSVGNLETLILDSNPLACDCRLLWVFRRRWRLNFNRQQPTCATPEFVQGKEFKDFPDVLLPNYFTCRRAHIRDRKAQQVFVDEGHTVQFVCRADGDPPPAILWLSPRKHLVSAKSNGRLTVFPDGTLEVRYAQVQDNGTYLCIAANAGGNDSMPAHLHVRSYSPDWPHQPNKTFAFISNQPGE
Briefly: method not stated (Example 5); KD determination (Example 5, method not stated), murine Sp35.

Assay [3] has as its target T2, Sp35 fragment amino acids 34-532 of SEQ ID NO:2 fused to hinge and Fc of IgG1 (human, UniProt Q96FE5 40-538).
T2 construct: the mature proteins should be the same; not shown: hinge and Fc regions of IgG1
T2 sequence: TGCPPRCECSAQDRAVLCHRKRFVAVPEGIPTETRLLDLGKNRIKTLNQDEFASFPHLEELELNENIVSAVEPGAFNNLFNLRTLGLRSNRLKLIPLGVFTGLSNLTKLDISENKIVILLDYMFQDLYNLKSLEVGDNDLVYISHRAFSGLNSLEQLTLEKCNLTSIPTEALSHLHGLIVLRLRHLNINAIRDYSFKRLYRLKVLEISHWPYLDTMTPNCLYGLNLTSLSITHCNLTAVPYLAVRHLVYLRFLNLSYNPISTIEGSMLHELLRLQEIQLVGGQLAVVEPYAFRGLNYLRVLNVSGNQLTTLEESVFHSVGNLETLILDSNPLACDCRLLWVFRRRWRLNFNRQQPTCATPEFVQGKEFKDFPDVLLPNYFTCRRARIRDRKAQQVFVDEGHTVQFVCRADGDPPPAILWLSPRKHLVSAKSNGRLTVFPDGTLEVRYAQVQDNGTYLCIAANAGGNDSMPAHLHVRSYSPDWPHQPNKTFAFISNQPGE
Nature of the assay: ELISA.

Assay [4] addresses T3, Sp35-Fc fusion protein (human Sp35 residues 1-532 fused to hinge and Fc of human IgG1) (human, UniProt Q96FE5 40-538).
T3 construct: also called LINGO-1-Fc; not shown: hinge and Fc region of human IgG1
T3 sequence: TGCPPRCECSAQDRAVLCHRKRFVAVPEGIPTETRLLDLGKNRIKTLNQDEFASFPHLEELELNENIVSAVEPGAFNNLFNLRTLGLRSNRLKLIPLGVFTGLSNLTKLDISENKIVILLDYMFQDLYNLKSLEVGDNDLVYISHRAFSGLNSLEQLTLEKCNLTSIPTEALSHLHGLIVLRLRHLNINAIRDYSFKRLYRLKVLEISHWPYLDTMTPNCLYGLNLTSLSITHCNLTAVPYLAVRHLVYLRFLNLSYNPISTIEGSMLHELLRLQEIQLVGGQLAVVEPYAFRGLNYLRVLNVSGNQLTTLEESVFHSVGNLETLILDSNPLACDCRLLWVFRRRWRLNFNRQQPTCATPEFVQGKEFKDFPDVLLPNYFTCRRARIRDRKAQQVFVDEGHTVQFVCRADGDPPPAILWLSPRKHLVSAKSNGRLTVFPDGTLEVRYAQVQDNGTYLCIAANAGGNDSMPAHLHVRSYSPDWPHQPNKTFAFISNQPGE
Briefly: ELISA.

In assay [5] the target is T4, full-length human Sp35 with N-terminal hemagglutinin (HA) tag, from lysate of transfected COS-1 cells (human, UniProt Q96FE5 40-620).
T4 construct: also called huSp35 (immunoprecipitation); not shown: HA tag at the N-terminus
T4 sequence: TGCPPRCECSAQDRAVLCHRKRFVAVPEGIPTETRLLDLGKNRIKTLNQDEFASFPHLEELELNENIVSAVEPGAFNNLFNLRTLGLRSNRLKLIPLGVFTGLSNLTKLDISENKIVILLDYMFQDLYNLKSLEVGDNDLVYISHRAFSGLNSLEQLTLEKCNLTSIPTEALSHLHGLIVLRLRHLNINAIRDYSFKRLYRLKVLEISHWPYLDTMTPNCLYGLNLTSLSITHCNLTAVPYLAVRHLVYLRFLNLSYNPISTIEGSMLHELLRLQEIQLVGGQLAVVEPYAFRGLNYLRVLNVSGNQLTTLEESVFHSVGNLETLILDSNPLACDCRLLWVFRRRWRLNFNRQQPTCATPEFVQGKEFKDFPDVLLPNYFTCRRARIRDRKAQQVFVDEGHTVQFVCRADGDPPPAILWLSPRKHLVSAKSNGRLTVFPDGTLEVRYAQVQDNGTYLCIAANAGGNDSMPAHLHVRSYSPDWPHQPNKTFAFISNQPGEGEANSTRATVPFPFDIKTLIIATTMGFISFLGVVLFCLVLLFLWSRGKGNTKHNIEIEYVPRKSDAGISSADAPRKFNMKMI
Briefly: immunoprecipitation. The protocol: (§1) To perform the immunoprecipitation, COS-1 cells expressing Sp35, fused to a hemaglutinin (HA) tag on the N-terminus, were produced by transiently transfecting COS-1 cells with a DNA construct which expresses the full-length Sp35 protein with an HA tag. Cells were harvested 48 hr after transfection and were lysed in 1 ml lysis buffer (50 mM HEPES, pH 7.5, 150 mM NaCl, 1.5 mM MgCl₂, 1 mM EGTA, 1% Triton X-100 and 10% glycerol) for 30 min at 4° C. After centrifugation at 14,000×g for 15 min, the supernatants were incubated with ProteinA/G-Sepharose beads (Santa Cruz) at 4° C. for 1 hr, and then incubated at 4° C. for 1 hr with either the 1A7 or the 2F3 anti-Sp35 murine monoclonal antibodies. The beads were washed 3 times with lysis buffer, boiled in Laemmli sample buffer, subjected to 4-20% SDS-PAGE, and analyzed by Western blotting using an antibody which recognizes the HA tag. As shown on the SDS-PAGE gel, monoclonal antibodies 1A7 and 2F3, immunoprecipitated human and murine Sp35 (FIG. 1). […] Similarly, monoclonal antibodies 1G7, 2B10, 2F3, 3P4C2.2D2, 3P4C8.2G9, Li01, Li03, Li05, Li06, Li07, Li08, Li11 and Li12 immunoprecipitate human or mouse or human and mouse Sp35 (See Table 3B). Additionally, Li08 immunoprecipitates AP-Sp35 and monoclonal antibodies 1B6.4 and 3E3.1 immunoprecipitate endogenous Sp35 (See Table 3B).

For assay [6], the target named is T5, Sp35 polypeptide consisting of amino acids 34-534 of human Sp35 (human, UniProt Q96FE5 40-540).
T5 construct: No fusion partner stated
T5 sequence: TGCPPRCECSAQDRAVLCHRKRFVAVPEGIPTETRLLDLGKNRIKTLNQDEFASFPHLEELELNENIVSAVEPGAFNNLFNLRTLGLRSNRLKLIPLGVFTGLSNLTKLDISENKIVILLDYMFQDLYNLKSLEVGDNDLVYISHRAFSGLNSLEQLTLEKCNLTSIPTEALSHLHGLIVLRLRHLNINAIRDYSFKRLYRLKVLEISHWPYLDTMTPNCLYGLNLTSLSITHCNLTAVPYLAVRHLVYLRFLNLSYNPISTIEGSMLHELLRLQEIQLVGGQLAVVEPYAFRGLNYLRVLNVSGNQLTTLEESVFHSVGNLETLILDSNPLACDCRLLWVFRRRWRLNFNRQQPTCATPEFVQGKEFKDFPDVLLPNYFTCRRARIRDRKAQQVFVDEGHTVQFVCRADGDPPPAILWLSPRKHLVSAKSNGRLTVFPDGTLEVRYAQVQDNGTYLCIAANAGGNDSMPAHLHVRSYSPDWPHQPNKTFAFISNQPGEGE
Nature of the assay: similar experiments (ELISA).

Assay [7] concerns the target T6, mouse Sp35 protein expressed on transfected cells (mouse, UniProt Q9D1T0 36-614).
T6 construct: whole, on cells; also called mSp35
T6 sequence (looked up): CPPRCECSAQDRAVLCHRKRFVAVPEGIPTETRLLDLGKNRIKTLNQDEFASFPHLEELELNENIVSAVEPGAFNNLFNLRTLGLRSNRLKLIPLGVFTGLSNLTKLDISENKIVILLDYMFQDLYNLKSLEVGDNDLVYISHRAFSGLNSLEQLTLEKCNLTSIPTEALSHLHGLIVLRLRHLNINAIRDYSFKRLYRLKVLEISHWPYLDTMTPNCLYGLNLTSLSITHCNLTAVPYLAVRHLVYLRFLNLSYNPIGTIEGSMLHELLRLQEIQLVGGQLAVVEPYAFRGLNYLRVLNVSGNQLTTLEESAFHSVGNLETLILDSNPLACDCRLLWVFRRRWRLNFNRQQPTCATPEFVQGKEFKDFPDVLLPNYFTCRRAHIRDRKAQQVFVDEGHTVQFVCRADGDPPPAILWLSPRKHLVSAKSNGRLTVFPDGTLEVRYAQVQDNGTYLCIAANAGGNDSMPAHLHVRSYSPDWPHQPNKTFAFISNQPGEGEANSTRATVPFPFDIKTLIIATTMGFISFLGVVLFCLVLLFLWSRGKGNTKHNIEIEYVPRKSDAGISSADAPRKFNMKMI
Briefly: FACS. An excerpt: To further characterize the binding properties of hybridoma-derived anti-Sp35 mAbs 1A7 and 2F3 produced as described in Example 3, binding to both fixed and live COS-7 or 293 cells expressing mouse or human Sp35 was compared.

Assay [8] has as its target T7, full-length murine Sp35 with HA tag, from lysate of transfected cells (mouse, UniProt Q9D1T0 34-614, limits assumed).
T7 construct: also called mSp35 (immunoprecipitation); not shown: HA tag
T7 sequence (looked up): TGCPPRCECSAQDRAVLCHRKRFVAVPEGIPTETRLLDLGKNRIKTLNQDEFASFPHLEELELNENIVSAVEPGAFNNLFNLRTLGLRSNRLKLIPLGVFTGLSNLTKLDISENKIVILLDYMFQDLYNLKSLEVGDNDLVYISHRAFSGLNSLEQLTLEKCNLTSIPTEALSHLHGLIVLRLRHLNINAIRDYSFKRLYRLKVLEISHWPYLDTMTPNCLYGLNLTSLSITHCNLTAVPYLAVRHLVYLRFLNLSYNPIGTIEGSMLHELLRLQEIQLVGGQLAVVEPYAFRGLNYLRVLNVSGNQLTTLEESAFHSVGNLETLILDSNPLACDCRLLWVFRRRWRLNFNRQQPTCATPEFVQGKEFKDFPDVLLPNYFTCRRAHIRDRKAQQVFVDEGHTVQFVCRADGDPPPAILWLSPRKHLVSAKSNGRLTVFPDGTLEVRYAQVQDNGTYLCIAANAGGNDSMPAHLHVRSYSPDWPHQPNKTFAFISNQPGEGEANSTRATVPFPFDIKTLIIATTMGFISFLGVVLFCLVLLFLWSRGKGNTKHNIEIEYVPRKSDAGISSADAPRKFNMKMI
Nature of the assay: immunoprecipitation. How it is done: as §1

As to 2nd Ab only (antibody), in assay [1], the (FL2-H) Geom. Mean is 6.6, the (FL2-H) Mean was determined as 8.78, the (FL2-H) Median came out at 6.76 and the fraction of cells in the marker gate (FL2-H histogram) was 5.52.

B1: 1A7 (antibody, V domains shown)
VH: QVQLVQSGPELKKPGETVKISCKASGYTFTNYGMNWVKQAPGKGLKWMGWINTDTGEPTYTEDFQGRFAFSLETSASTVYLQFNNLKNEDTATYFCAREGVHFDYWGQGTTVTVSS
VL: QIVLTQSPAIMSASPGEKVTMTCSASSSVSYMHWYQQKSGTSPKRWIYDTSKLASGVPARFSGSGSGTSYSLTISSMEAEDAATYYCQQWSSNPFTFGSGTKLEIK
notes: murine hybridoma monoclonal antibody; also called monoclonal antibody 1A7; MAb 1A7
B1: in assay [2], the Kd came to 20 µM.

B2: 3P1D10.2C3 (antibody, V domains shown)
VH: QVQLQQSGAELARPGASVKLSCRASGYTFTSSWTQWVKQRPGQGLEWIGAIYPGDGDTRYTQKFKGKATLTADKSSSTAYMQLSSLASEDSAVYYCARHNSYGMDYWGQGTSVTVSS
VL: DIVMTQSPSSLTVTAGEKVTMSCKSSQSLLNSGNQKNYLTWYQQKPGQPPKLLIYWASTRESGVPDRFTGSGSGTDFTLTINSVQAEDLAVYYCQNDYSYPLFTFGSGTKLEIR
notes: murine hybridoma monoclonal antibody
For the molecule B2, the binding result in assay [3], in assay [4], in assay [5] and in assay [6] was “binds” throughout.

B3: 3P1E11.3B7 (antibody, V domains shown)
VH: QVQLQQSGAELARPGASVKLSCRASGYTFTSSWTQWVKQRPGQGLEWIGAIYPGDGDTRYTQKFKGKATLTADKSSSTAYMQLSSLASEDSAVYYCARHNSYGMDYWGQGTSVTVSS
VL: DIVMTQSPSSLTVTAGEKVTMSCKSSQSLLNSGNQKSYLTWYQQKPGQPPKLLIYWASTRESGVPDRFTGSGSGTDFTLTINSVQAEDLAVYYCQNDYSYPLFTFGSGTKLEIR
Turning to B3, the binding result in assay [3], in assay [4], in assay [5] and in assay [6] was “binds” in each case.

B4: 2F3 (antibody, V domains shown)
VH: EVKLEESGGGLVQPGGSMKLSCAASGFTFSDAWLDWVRQSPEKGLEWVAEIRSKANNHATNYAESVKGRFTISRDDSKSSVYLQMNSLRAEDTGIYFCTPSFAYWGQGTTVTVSS
VL: DIQMTQSPASLSASVGETVTITCRASGNIYNYLAWFQQKQGKSPQLLVYNAKTLPDGVPSRFSGSGSGTQYFLKINSLQPEDFGSYYCQHFWAIPYTFGGGTKLEIKR
notes: murine hybridoma monoclonal antibody; also called monoclonal antibody 2F3; MAb 2F3
Take B4: the binding result in assay [7] and in assay [8] was “binds” throughout.
